Test results reported in publication PMC3575409, “Identification of a Novel Protein-Protein Interaction Motif Mediating Interaction of GPCR-Associated Sorting Proteins with G Protein-Coupled Receptors” (PLoS ONE, 2013).

Key:
Format in all cases: binding
GST-fused ADRB1 C-tail = assay: GST-pull down, ADRB1 C-tail; conditions: percent of [35S]-GASP input; pH 7.4, 1 h at 4°C; three independent experiments
From the text: (§1) cDNAs encoding the cytoplasmic C-tail of 14 GPCRs and 2 one-transmembrane receptors were cloned into the pGEX-2T prokaryotic expression vector downstream the GST sequence. The following pGEX constructs were engineered: pGEX-DOR encoding residues 314–372 of the δ-opioid receptor (referring to Swiss-Prot accession number U10504), pGEX-MOR encoding residues 334–400 of the µ-opioid receptor (L29301), pGEX-KOR encoding residues 326–380 of the κ–opioid receptor (U17298), pGEX-ORL1 encoding residues 315–370 of the opioid receptor-like 1 (X77130), pGEX-M1 encoding residues 414–460 of the muscarinic M1 acetylcholine receptor (X52068), pGEX-M2 encoding residues 436–466 of the muscarinic M2 acetylcholine receptor (M16404), pGEX- ADRB1 encoding residues 373–477 of the β1 adrenergic receptor (J03019), pGEX-ADRB2 encoding residues 322–413 of the β2 adrenergic receptor (P07550), pGEX-CALCR encoding residues 407–490 of the calcitonin receptor (L00587), pGEX-CNR2 encoding residues 295–360 of the cannabinoid type 2 receptor (P34972), pGEX-5HT7 encoding residues 380–445 of the 5-hydroxytryptamine 7 receptor (L21195), pGEX-H2 encoding residues 284–349 of the histamine 2 receptor (S57565), pGEX-TXA2 encoding residues 304–343 of the α isoform of the thromboxane A2 receptor (D38081), pGEX-FZ4 encoding residues 493–537 of the frizzled 4 receptor (AB032417), pGEX-TGFβ encoding residues 805–849 of the type III transforming growth factor b receptor (L07594), pGEX-IGF1 encoding residues 1268–1367 of the insulin growth factor I receptor (X04434). Free GST was produced by using the pGEX-4T3 expression vector without insert. The same plasmid was used to clone the cDNA encoding a central domain of GASP-1, corresponding to amino acids 380 to 1073, downstream the GST sequence. All these plasmids were transformed into the Escherichia coli BL21 strain and expression was induced using 1mM of isopropylthiogalactoside for 2 h at 37°C. Bacteria were then pelleted, resuspended in PBS supplemented with cOmplete protease inhibitors (Roche), lysed at 1.5 kbar using a basic Z cell disrupter (constant system) and finally the lysates were cleared by centrifugation (10,000g, 15 min, 4°C).
(§2) cDNAs encoding GASP-1 and GASP-2 were cloned into the pcDNA3 eukaryotic expression vectors. cDNAs encoding GASP-3, -6, -7, and -9 were subcloned into pcDNA3.1 vectors. All the clones were controlled by DNA sequencing. The in vitro production was performed by using the TNT Quick-coupled Transcription/Translation T7 kit (Promega) in presence of [^35S]-Methionine according to the instructions from the manufacturer.
(§3) GST-fusion proteins were immobilized on glutathione-coupled Sepharose beads (GE Healthcare) for 1 h at 4°C and incubated with [^35S]-labelled in vitro translated GASP proteins or their truncated or mutated forms in ice-cold binding buffer containing: 20 mM Tris-HCl pH 7.4, 150 mM NaCl, 1 mM EDTA, 1 mM DTT, 10% glycerol and 1% Triton X-100. The mixture was incubated for 1 h at 4°C with gentle rocking. The beads were washed five times with the same ice-cold buffer, resuspended in 30 µl SDS-PAGE sample buffer, incubated 10 min at 65°C, and pelleted for 60 s at 3000 g. The supernatants were then analyzed by SDS-PAGE, the gels were stained with Coomassie blue to visualize GST-fusion proteins, dried and analyzed using a Phosphor-imager (Personal Molecular Imager FX, Biorad) to visualize [^35S]-labelled GASPs. Quantification was performed with the Quantity One software (Biorad). GST-pull down quantification data were analyzed using GraphPad Prism 4.03 (GraphPad Software). Quantifications presented are means of at least three independent experiments.

GST-fused CALCR C-tail = assay: GST-pull down, CALCR C-tail; conditions: percent of [35S]-GASP input; pH 7.4, 1 h at 4°C; three independent experiments
Experimental: (§4) cDNAs encoding the cytoplasmic C-tail of 14 GPCRs and 2 one-transmembrane receptors were cloned into the pGEX-2T prokaryotic expression vector downstream the GST sequence. […]
as §3, with “The mixture was incubated for 1 h at 4°C with gentle rocking. The beads were washed five times with the same ice-cold buffer, resuspended in 30 µl SDS-PAGE sample buffer, incubated 10 min at 65°C, and pelleted for 60 s at 3000 g.” left out

GST-fused TXA2 C-tail = assay: GST-pull down, TXA2 C-tail; conditions: percent of [35S]-GASP input; pH 7.4, 1 h at 4°C; three independent experiments
Experimental: as §4
as §3, with “The mixture was incubated for 1 h at 4°C with gentle rocking. The beads were washed five times with the same ice-cold buffer, resuspended in 30 µl SDS-PAGE sample buffer, incubated 10 min at 65°C, and pelleted for 60 s at 3000 g.” left out

GST-fused M1 C-tail = assay: GST-pull down, M1 C-tail; conditions: percent of [35S]-GASP input; pH 7.4, 1 h at 4°C; three independent experiments
From the text: as §1, §2, §3

GST-fused DOR C-tail = assay: GST-pull down, DOR C-tail; conditions: percent of [35S]-GASP input; pH 7.4, 1 h at 4°C; three independent experiments
From the text: as §1, §2, §3

[1] = test system: GST-fused H2 (histamine H2 receptor) C-tail; assay: GST-pull down, H2 C-tail; conditions: percent of [35S]-GASP input; pH 7.4, 1 h at 4°C; three independent experiments
Experimental: as §4
as §3, with “The mixture was incubated for 1 h at 4°C with gentle rocking. The beads were washed five times with the same ice-cold buffer, resuspended in 30 µl SDS-PAGE sample buffer, incubated 10 min at 65°C, and pelleted for 60 s at 3000 g.” left out

[2] = test system: GST-fused TGFβ (type III transforming growth factor β receptor) C-tail; assay: GST-pull down, TGFβ C-tail
From the text: as §1, §2, §3

[3] = test system: GST-fused IGF1 (insulin growth factor I receptor) C-tail; assay: GST-pull down, IGF1 C-tail
From the text: as §1, §2, §3

GST-fused GPCR C-tails = assay: GST-pull down, GPCR C-tails; conditions: twelve GPCR C-tails
From the text: as §1, §2
as §3, with “experiments. […]” for “experiments.”

[4] = percent of [35S]-GASP input, controls

B1: GASP-9: member of the second GASP subfamily, without GASP motif (protein)
chain: MSRVRDAGCVAAGIVIGAGAWYCVYKYTRGRDQTKKRMAKPKNRAVAGTGARARAGLRAGFTIDLGSGFSPPTPVRAEAEDRAQDEASALDTVGAEAVAPAASSAEAQSGAGSQAQEADGAGVGPKAESVVGAAMASAIAPPPGVTEALGAAEAPAMAGAPKVAEAPREAETSRAAVPPGTVVPTEAAAPTEVTEGPGVAAPTKVAEAPGVASPTEAAEAPVPATPTGAAAPTGAAESPGTSGSPRTAVVPGTSAAKKATPGAHTGAIPKATSATGAVPKGGGKGVTRSRNGGKGKGKKSKVEVDELGMGFRPGDGAAAAAAASANGGQAFLAEVPDSEEGESGWTDTESDSDSEPETQRRGRGRRPVAMQKRPFPYEIDEILGVRDLRKVLALLQKSDDPFIQQVALLTLSNNANYSCNQETIRKLGGLPIIANMINKTDPHIKEKALMAMNNLSENYENQGRLQVYMNKVMDDIMASNLNSAVQVVGLKFLTNMTITNDYQHLLVNSIANFFRLLSQGGGKIKVEILKILSNFAENPDMLKKLLSTQVPASFSSLYNSYVESEILINALTLFEIIYDNLRAEVFNYREFNKGSLFYLCTTSGVCVKKIRALANHHDLLVKVKVIKLVNKF
modifications: [35S]-methionine labelled
GASP input retained by ADRB1 C-tail (GST-fused ADRB1 C-tail): around 2% | GASP input retained by CALCR C-tail (GST-fused CALCR C-tail): around 2% | GASP input retained by TXA2 C-tail (GST-fused TXA2 C-tail): around 2% | GASP input retained by M1 C-tail (GST-fused M1 C-tail): around 2% | GASP input retained by DOR C-tail (GST-fused DOR C-tail): around 2% | GASP input retained by H2 C-tail [1]: around 2% | interaction with TGFβ C-tail ([2]; non-GPCR control): No interaction was detected | GASP input retained by control TGFβ C-tail [2, 4]: less than 1% | interaction with IGF1 C-tail ([3]; non-GPCR control): No interaction was detected | GASP input retained by control IGF1 C-tail [3, 4]: less than 1% | interaction with GPCR C-tails (GST-fused GPCR C-tails): very weak interactions
